This is an account of results in paper PMC8867601, “The TERB1 MYB domain suppresses telomere erosion in meiotic prophase I”.

For data set [1], the target named is T1, mTERB1-MYB (Mus musculus, UniProt Q8C0V1 707-760).
T1 sequence: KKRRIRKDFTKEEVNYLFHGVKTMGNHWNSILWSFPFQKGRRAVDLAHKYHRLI
The data set is described as follows: EMSA; 2-8 uM protein, 150 nM probe; 50 mM Tris-HCl pH 8.0, 6.5% glycerol, 20 mM NaCl, 5 mM DTT, 150 nM probe, 10 ul, 30 min on ice; 4-20% TBE native gel. Conditions: protein: recombinant; tags: 6xHis (not cleaved); label: 32P (T4 PNK). On the technique in general: A gel shift assay detects complexes by their altered migration in electrophoresis.

For data set [2], the target named is T2, hTERB1-MYB (Homo sapiens, UniProt Q8NA31 666-719).
T2 sequence: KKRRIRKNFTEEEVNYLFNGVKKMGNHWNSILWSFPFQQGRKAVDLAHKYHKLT
The data set is described as above. The note with it: protein: recombinant; tags: none after Ulp1 cleavage of His-Smt3; label: 32P (T4 PNK).

For data set [3], the target named is T1, mTERB1-MYB. The data set is described as follows: EMSA; 150 nM probe; 50 mM Tris-HCl pH 8.0, 6.5% glycerol, 20 mM NaCl, 5 mM DTT, 150 nM probe, 10 ul, 30 min on ice; 4-20% TBE native gel. Conditions: protein: recombinant; tags: 6xHis (not cleaved); label: 32P (T4 PNK).
In data set [4] the target is T2, hTERB1-MYB. Described as above. Conditions: protein: recombinant; tags: none after Ulp1 cleavage of His-Smt3; label: 32P (T4 PNK).
The target of another data set is hTRF2-MYB (Homo sapiens, UniProt Q15554 488-542). The data set is described as above. The note with it: protein: recombinant; tags: none after Ulp1 cleavage of 10xHis-Smt3; label: 32P (T4 PNK).
Sequence of hTRF2-MYB (Q15554 488-542): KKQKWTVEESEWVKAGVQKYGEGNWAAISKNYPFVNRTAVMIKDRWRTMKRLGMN

B1: dsDNA_scrambled_8-mer (dsDNA)
DNA 1: GACAGCGATGAGAACTAATTCGTGTGCTTGCTGACTGATATCGTGACT
DNA 2: AGTCACGATATCAGTCAGCAAGCACACGAATTAGTTCTCATCGCTGTC
Take B1: the binding result with mTERB1-MYB [1] and in the data set with hTERB1-MYB [2] was “no binding” in each case.

B2: dsDNA_telo_8-mer (TTAGGG)8 (dsDNA)
DNA 1: TTAGGGTTAGGGTTAGGGTTAGGGTTAGGGTTAGGGTTAGGGTTAGGG
DNA 2: CCCTAACCCTAACCCTAACCCTAACCCTAACCCTAACCCTAACCCTAA
With B2, the binding result was “no binding” with mTERB1-MYB [3], “no binding” in the data set with hTERB1-MYB [4] and “binds” in the data set with hTRF2-MYB.
